This is an account of results in the nanobody polyreactivity screen of Harvey et al. (2022).

The data set is described as follows: yeast display, Sf9 membrane polyspecificity reagent, FACS + sequencing; frameworks hold sequencing errors. In outline: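 Galactose-induced (36–48 hours) yeast carrying a synthetic nanobody display library were exposed to 10% biotinylated, detergent-solubilized Sf9 membrane reagent at 4 °C for 1 hour. FACS followed streptavidin microbead enrichment, using low and high (top ~1%) gates for expression (anti-HA) and reagent binding (streptavidin). Colony PCR, MiSeq 2 × 250 sequencing and CDR-length filtering followed. Labels for polyreactivity reflect the gate of origin.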
As for “QVQLVESGGGLVQAGGSLRLSCAASGLTFGGNAMGWYRQAPGKERELVAAISWSDDTTDYADSVKGRFTISRDNGKYTVYLQMNSLKPEDTAVYYCAARLPFEHVDYWGQGTQVTVSS”, the “polyreactivity (PSR sort gate)” value is reported as “low polyreactivity”.
As to “QVQLVESGGGLVQAGGSLRLSCAASGLTFGHYAMGWYRPAPGKERELVAAITSGGRTYYADSVKGRFTISRDNAKYTVYLQMNSLKPEDTAVYYCATRGPRYRYYYWGQGTQVTVSS”, the “polyreactivity (PSR sort gate)” value is on record as “high polyreactivity”.
For the sequence “QVQLVESGGGLVQAGGSLRLSCAASGLTFGIYAMGWYRQAPGKERELVATISWRGGSTYYADSVKGRFTISRDNAKNTVYLQMNSLKPEDTAVYYCNADNEYRLGYWDDSCGQGTQVTVSS”, the “polyreactivity (PSR sort gate)” value is given as “low polyreactivity”.
As for “QVQLVESGGGLVQAGGSLRLSCAASGLTFGLNALGWYRQAPGKERELVAAITWSGGSTYYADSVKGRFTISRDNAKNTVYLQMNSLKPEDTAVYYCATDNWSVNGGYNYWGQGTQVTVSS”, the “polyreactivity (PSR sort gate)” value is reported as “low polyreactivity”.
For “QVQLVESGGGLVQAGGSLRLSCAASGLTFGLNAMGWYRQAPGKEREVVAAITWSGGSTYYADSVKGRFTISRDNAKNTVYLQMNSLKPEDTAVYYCATDNWSVNGGYNYWGQGTHVTVSS”, the “polyreactivity (PSR sort gate)” value was “low polyreactivity”.
For the sequence “QVQLVESGGGLVQAGGSLRLSCAASGLTFGLNAMGWYSQAPGKERELVAAITWSGGSTYYADSVKGRFTISRDNAKNTVYLQMNSLKPEDTAVYYCATDNLSVNGGYNYWGQGTQVTVSS”, the “polyreactivity (PSR sort gate)” value is reported as “low polyreactivity”.
Regarding “QVQLVESGGGLVQAGGSLRLSCAASGLTFGPYAMGWYRQAPGKERELVAAITSGGNTNYADSVKGRFTISRDNAKNTVYLQMNSLKPEDTAVYYCATSYYLAYRSITPYDYWGQGTQVTVSS”, the “polyreactivity (PSR sort gate)” value is recorded as “low polyreactivity”.
For “QVQLVESGGGLVQAGGSLRLSCAASGLTFGSYAMGWYRQAPGKERELVAAISRSGGSTYYADSVMGRFTISRDNAKNTVYLQMNSLKPEDTAVYYCNAVNRYYAPTDRRVGYDYWGQGTQVTVSS”, the “polyreactivity (PSR sort gate)” value is recorded as “high polyreactivity”.
On to “QVQLVESGGGLVQAGGSLRLSCAASGLTFGSYAMGWYRQAPGKERELVAAISSRGGTTYYADSVKGRFTISRDNAKNTVYLQMNSLKPEDTAVYYCAARSRRYSYDNLGHWGQGTQVTVSS”, for which the “polyreactivity (PSR sort gate)” value is “high polyreactivity”.
In the case of “QVQLVESGGGLVQAGGSLRLSCAASGLTFGTNAMGWYRQAPGKERELVAAISTSSGSTYYADSVKGRFTISRDNAKNTVYLQMNSLKPEDTAVYYCAAVTVTKMSYYRYYYWGQGTQVTVSS”, the “polyreactivity (PSR sort gate)” value is given as “low polyreactivity”.
With “QVQLVESGGGLVQAGGSLRLSCAASGLTFGYYVMGWYRQAPGKERELVADINFSGGSTYYADSVKGRFTISRDNAKNTVYLQMNSLKPEDTAVYYCNGVVYRFTVSTGYESWGQGTQVTVSS”, the “polyreactivity (PSR sort gate)” value is listed as “low polyreactivity”.
Then “QVQLVESGGGLVQAGGSLRLSCAASGLTFHDYAMGWYIQAHVKERELVAGINSGGSTNYADSVKGRFTISRDNAKNTVYLQMNSLKPEDTAVYYCARGPQYDEGEYWGQCTQVTVSS”, with “low polyreactivity”; and “QVQLVESGGGLVQAGGSLRLSCAASGLTFHRYAMGWYRQAPGKERELVADISSGDSTNYADSVKGRFTISRDNAKNTVYLQMTSLKPEDTAVYYCNTDGYIYRYRFDYWGQGTQVTVSS”, with “low polyreactivity”; and “QVQLVESGGGLVQAGGSLRLSCAASGLTFHYYAMGWYRQAPGKERELVAVISSGGSTYYADSVKGRFTISRDNAKNTVYLQMNSLKPEDTAVYYCAKLSLSWDGYYQYDYRGQGTQVTVSS”, with “low polyreactivity”.
With “QVQLVESGGGLVQAGGSLRLSCAASGLTFIPNAMGWYRQAPGKERELVAAISGTGGSTYYADSVKGRFTISRDNAKNTVYLQMNSLKPEDTAVFYCAARAYLGYYSWGQGTQVTVSS”, the “polyreactivity (PSR sort gate)” value is reported as “high polyreactivity”.
In the case of “QVQLVESGGGLVQAGGSLRLSCAASGLTFIRYAMGWYRQAPGKERELVASISRGGSTYYADSVKGRVTISRDNAKNTVYLQMNSLKPEDTAVYYCAAQHVGHNYYNSGFYYWGQGTQVTVSS”, the “polyreactivity (PSR sort gate)” value is reported as “low polyreactivity”.
Turning to “QVQLVESGGGLVQAGGSLRLSCAASGLTFIYNAMGWYRQAPGKERELVAAISGNGGDTYYADSVKGRFTISRDNAKNTVYLQMNSLKPEDTAVYYCAADYAYTPITWDEYWGQGTQVTVSS”, the “polyreactivity (PSR sort gate)” value is on record as “low polyreactivity”.
Then “QVQLVESGGGLVQAGGSLRLSCAASGLTFIYYAMGWYRQAPGKERELVAAISVSGGSTYYADSVKGRFTISRDNAKNTVYLQMNSLKPEDTAVYYCAADWFVHIPRYQYSFDYWGQGTQVTVSS”, with “low polyreactivity”.
On to “QVQLVESGGGLVQAGGSLRLSCAASGLTFKENVMGWYRQAPGKERELVAAISTGASTYYADSVKGRFTISRDNAKNTVYLQMNSLKPEDTAVYYCAKRVTRWYGYWGQGTQVTVSS”, for which the “polyreactivity (PSR sort gate)” value is “high polyreactivity”.
For “QVQLVESGGGLVQAGGSLRLSCAASGLTFKKYTIGWYRQAPGKETQLVAVITSGGSTYYADSVKGRFTISRDNAKNTVYLQMNSVKPEDTAVYYGAVKYPELRSWGNYYWGQGTQVTVSS”, the “polyreactivity (PSR sort gate)” value is “high polyreactivity”.
“QVQLVESGGGLVQAGGSLRLSCAASGLTFKPYAMVWYRQAPGKEREFVAAISWRSGSTYYADSVKGRFTISRDYEKNTVYLQMNRLKPEDTAVYYCNALYRVFVGTYDFWGQGTHVTVSS”: the “polyreactivity (PSR sort gate)” value is given as “high polyreactivity”.
Then “QVQLVESGGGLVQAGGSLRLSCAASGLTFKRYAMGWYRQAPGTEREFVAAISAGGASTHYADSVKGRFTISRDNAKNTVYLQMNSLKPEDTAVYYCATDYRTFRPSFGYWGQGTQVTVSS”, with “low polyreactivity”; and “QVQLVESGGGLVQAGGSLRLSCAASGLTFKYYAMGWYRQAPGKERELVAAITSTGGRTYYADSVKGRFTISRDNAKNTVYLQMNSLKPEDTAVYYCAAYYVGSSKYDSWGQGTQVTVSS”, with “low polyreactivity”; and “QVQLVESGGGLVQAGGSLRLSCAASGLTFKYYTMGWYRQAPGKERELVAAISRSGTITYYADSVKGRFTISRDNAKNTVYLQMNSLKPEDTAVYYSNKASTYPSYDYWGHGTQVTVSS”, with “high polyreactivity”.
With “QVQLVESGGGLVQAGGSLRLSCAASGLTFKYYTMGWYRQAPGKERELVADISRTGRTSYADSVKGRFTISRDNAKNTDYLQMNSLKPEDTAVYYCNADFYVSGYSLFASIYDYWGQGTQVTVSS”, the “polyreactivity (PSR sort gate)” value was “high polyreactivity”.
The entry for “QVQLVESGGGLVQAGGSLRLSCAASGLTFLDYAMGWYRQAPGKERELVAAITSGGSTNYADSVKGRFTISRDNAKNTVYLQMNSLKPEDTAVYYCATDLEVSAYDYWGQGTQVTVSS” is “low polyreactivity”.
On to “QVQLVESGGGLVQAGGSLRLSCAASGLTFLINAMGWYRQAPGKERELVAAITSSGGSTSYADSVKGRFTISRDNAKYTVYLQMNSLKPEDTAVYYCAADLNAYPQRAYDYWGQGTQVTVSS”, for which the “polyreactivity (PSR sort gate)” value is “low polyreactivity”.
As to “QVQLVESGGGLVQAGGSLRLSCAASGLTFLPNAMGWYRQAPGKERELVAAITNGGGTNYADSVKGRFTISRDNAKNTVYLQMNSLKPEDTAVYYCNADSTYFGGHDYWGQGTQVTVSS”, the “polyreactivity (PSR sort gate)” value is reported as “low polyreactivity”.
Turning to “QVQLVESGGGLVQAGGSLRLSCAASGLTFNTSAMGWSRQAPGKEREWVAAITSSGSITYYADSVKGRFTISRDNAKNTVYLQMNSLKPEDTAVYYCAAAVGYYAFGTYPFDDWPYDYWGQGTQVTVSS”, the “polyreactivity (PSR sort gate)” value is “high polyreactivity”.
Turning to “QVQLVESGGGLVQAGGSLRLSCAASGLTFPRYAMGWYRQAPGKEREFVAGITYSGGSTYYADSVKGRFTISRDNAKNTVYLQMNSLKPEDTAVYYCAATPWSYEYYYWGQGTQVTVSS”, the “polyreactivity (PSR sort gate)” value is given as “low polyreactivity”.
Then “QVQLVESGGGLVQAGGSLRLSCAASGLTFPYYAMGWYRQAPGTERELVAAISGGGRTYYADSVKGRFTISRDNAKNTVYLQMNSLKPEDTAVYYCAPFHVGRYTGTVTDGYDYWGQGTQVTVSS”, with “high polyreactivity”; and “QVQLVESGGGLVQAGGSLRLSCAASGLTFPYYSMGWYRQAPGKERVLVAAITKSGGSTYADSVKGRFTISRDNAKNTVYLQMNSLKPEDTAVYYCAAGRRKYGTKGRGDYWGQGTQVTVSS”, with “low polyreactivity”; and “QVQLVESGGGLVQAGGSLRLSCAASGLTFPYYVMGWYRQAPGKERELVAAIDDGGGSTYYADSVKGRFTISRDNAKNTVYLQMNSLKPEDTAVYYCAAQVDYLAHYGYWGQGTQVTVSS”, with “low polyreactivity”.
For the sequence “QVQLVESGGGLVQAGGSLRLSCAASGLTFQSNAMGWSRQAPGKEREFVAAITSGGNTYYADSVKGRFTISRDNAKNTVYLQMNSLKPEDTAVYYCNADYQDEEDDYWGQGTQVTVSS”, the “polyreactivity (PSR sort gate)” value is “low polyreactivity”.
In the case of “QVQLVESGGGLVQAGGSLRLSCAASGLTFQSYDMGWYRPAPGKERELVAAISRRGGSTYYADSVKGRFTISRDNAKNTVYLQLNSLKPEDTAVYYCAAETYYTYWPYGMGYWGQGTQVTVSS”, the “polyreactivity (PSR sort gate)” value is on record as “high polyreactivity”.
In the case of “QVQLVESGGGLVQAGGSLRLSCAASGLTFQSYDMGWYRQAPGKERELVAAISRRGGSTYYADSVKGRFTISRDNAKNTVYLQMNSLKPEDTAVYYCAAEYRSWSWRMDYWGQGTQVTVSS”, the “polyreactivity (PSR sort gate)” value is listed as “high polyreactivity”.
Then “QVQLVESGGGLVQAGGSLRLSCAASGLTFQVYAMGWYRQAPGKERELVAGITRGGRTYYADSVKGRFTISRDNAKNTVYLQMNSLKPEDTAVYYCNADAPYGGPSWAKSRYEYWGQGTQVTVSS”, with “low polyreactivity”; and “QVQLVESGGGLVQAGGSLRLSCAASGLTFQWYAMGWYRQAPGKERELVAAISIGGSTNYADSVKGRFTISRDNAKNTVYLQMNSLKPEDTAVYYCNKGSDFFWYDYDYWGQGTQVTVSS”, with “low polyreactivity”.
For the sequence “QVQLVESGGGLVQAGGSLRLSCAASGLTFQYNAMGWYRQAPGKERELVAANSRSGGRTYYADSVKGRFTISRDNAKNTVYLQLNSLKPEDTAVYYCAARDRSTRSDLTSYSVLYGNYYWGQGTQVTVSS”, the “polyreactivity (PSR sort gate)” value is listed as “high polyreactivity”.
On to “QVQLVESGGGLVQAGGSLRLSCAASGLTFRAYTMGWYRQAPGKERELVAAISRSGGSTYYADSVKGRFTISRDNAKNTVYLQMNSLKPEDTAVYYCAAPGYQTVGMGYWGQGTQVTVSS”, for which the “polyreactivity (PSR sort gate)” value is listed as “high polyreactivity”.
Then “QVQLVESGGGLVQAGGSLRLSCAASGLTFRDNAMGWYRQAPGKERELVATINSGGSTDYADSVKGRFTISRDNAKNTVYLQMNILKPEDTAVYYCAVYREYYDRGWYSIFYWYDYWGQGTQVTVSS”, with “low polyreactivity”.
